Target: T1, FaRAV1 (Fragaria × ananassa, UniProt A0A3Q8TB28 1-301)
T1 sequence: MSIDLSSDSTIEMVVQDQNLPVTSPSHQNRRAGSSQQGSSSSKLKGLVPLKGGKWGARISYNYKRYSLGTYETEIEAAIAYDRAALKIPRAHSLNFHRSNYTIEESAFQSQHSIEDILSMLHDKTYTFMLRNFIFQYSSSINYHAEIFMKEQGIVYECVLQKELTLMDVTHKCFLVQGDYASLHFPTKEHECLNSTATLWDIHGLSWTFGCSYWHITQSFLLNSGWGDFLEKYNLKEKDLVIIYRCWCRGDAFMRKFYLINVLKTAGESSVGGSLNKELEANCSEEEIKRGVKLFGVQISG
Test: EMSA; 8 nM biotinylated probe; LightShift Chemiluminescent EMSA kit (Thermo), per manufacturer and Ge et al. 2017; 8 nM biotin probe; binding buffer, pH and temperature not stated
Conditions: protein: recombinant; tags: His (pET-32a; described as N-terminal FaRAV1-His fusion); label: 3'-biotin; blunt

B1: FaMYB10 promoter mutant probe (dsDNA)
DNA 1: AGGGTGGGGACTCGACAGTTTTTAGCTAACTTCCACATGCAATGGATCGAAAT
DNA 2: ATTTCGATCCATTGCATGTGGAAGTTAGCTAAAAACTGTCGAGTCCCCACCCT
binding result: no binding

From paper PMC7589338, “The strawberry transcription factor FaRAV1 positively regulates anthocyanin accumulation by activation of FaMYB10 and anthocyanin pathway genes”
